Experimental data reported in paper PMC4116228.
Values belong to the substance of their own block, whether it stands above or below them.

Tests used:
Active MMP-2 = experiment: enzyme inhibition (fluorogenic substrate, Ki by the Morrison equation); Active MMP-2 (0.76 nM) with FLAG-TIMP-1 or FLAG-T2G (0.17 to 13.5 nM), 2 h at 27 C; 50 mM Tris-HCl pH 7.5, 150 mM NaCl, 5 mM CaCl2; substrate MCA-Pro-Leu-Gly-Leu-Dpa-Ala-Arg-NH2
[1] = molecular target: Endogenous LRP-1 of mouse cortical neurons (alpha-chain and beta-chain) (mouse (endogenous in primary cortical neurons))
[2] = molecular target: HA-tagged mini LRP-IV (LRP-1 mini-receptor with ligand-binding domain IV)
[3] = molecular target: HA-tagged mini LRP-II (LRP-1 mini-receptor with ligand-binding domain II)
[4] = molecular target: Endogenous LRP-1 of mouse cortical neurons (alpha-chain and beta-chain) (mouse (endogenous in primary cortical neurons)); remark: listed apart in the source
[5] = molecular target: Recombinant human LRP-1 Fc-tagged mini-domain IV (human); experiment: SPR; Fc-DII or Fc-DIV captured by anti-Fc antibody immobilised on a CMD500m chip (around 8 fmol/mm^2); TIMP-1 or EGF 5 to 80 nM injected sequentially (single-cycle kinetics, 2 min at 50 ul/min); 25 C; HBS (50 mM HEPES-NaOH pH 7.4, 150 mM NaCl, 0.005% Tween-20); corrected for Fc-coated flow cell and blank run; 1:1 titration kinetic model; Biacore T200
[6] = molecular target: Recombinant human LRP-1 Fc-tagged mini-domain II (human); experiment: as above

Ki (Active MMP-2): 18.9 nM
Substance: FLAG-tagged full-length TIMP-1 T2G mutant (from UniProt P01033 24-207) (natural protein)

Ki (Active MMP-2): 0.09 nM
growth cone volume of cortical neurons after 30 min with 10 nM TIMP-1; the increase is prevented by RAP or blocking LRP-1 antibodies [1]: 2.8 fold
Substance: FLAG-tagged wild type TIMP-1 (from UniProt P01033 24-207) (natural protein)

internalisation of surface-bound fluo-TIMP-1 (10 nM) by DIV-overexpressing CHO cells after 2 h at 37 C (pronase-resistant fluorescence); significantly impeded by 500 nM RAP [2]: 50%
internalisation of surface-bound fluo-TIMP-1 (10 nM) by DII-overexpressing CHO cells after 2 h at 37 C (pronase-resistant fluorescence); significantly impeded by 500 nM RAP [3]: 50%
inhibition by 500 nM RAP of the internalisation of fluo-TIMP-1 by cortical neurons (37 C, pronase-resistant fluorescence) [4]: 2 fold
Substance: Fluorescent TIMP-1 (eFluor-conjugated recombinant TIMP-1) (from UniProt P01033 24-207) (natural protein)

Kd [5]: 52.4 nM
koff [5]: 0.0135 s⁻¹
kon [5]: 255000 M⁻¹ s⁻¹
Kd [6]: 11.2 nM
koff [6]: 0.021 s⁻¹
kon [6]: 1.87e+06 M⁻¹ s⁻¹
Substance: Human recombinant TIMP-1 (tissue inhibitor of metalloproteinases-1) (from UniProt P01033 24-207) (natural protein)
